Data on 2 molecules can be found in patent publication US20080242608A1 (published 2008).

B2: Endogenous FOXO3 (293T cells) (other, UniProt O43524 1-673, looked up)
chain: MAEAPASPAPLSPLEVELDPEFEPQSRPRSCTWPLQRPELQASPAKPSGETAADSMIPEEEDDEDDEDGGGRAGSAMAIGGGGGSGTLGSGLLLEDSARVLAPGGQDPGSGPATAAGGLSGGTQALLQPQQPLPPPQPGAAGGSGQPRKCSSRRNAWGNLSYADLITRAIESSPDKRLTLSQIYEWMVRCVPYFKDKGDSNSSAGWKNSIRHNLSLHSRFMRVQNEGTGKSSWWIINPDGGKSGKAPRRRAVSMDNSNKYTKSRGRAAKKKAALQTAPESADDSPSQLSKWPGSPTSRSSDELDAWTDFRSRTNSNASTVSGRLSPIMASTELDEVQDDDAPLSPMLYSSSASLSPSVSKPCTVELPRLTDMAGTMNLNDGLTENLMDDLLDNITLPPSQPSPTGGLMQRSSSFPYTTKGSGLGSPTSSFNSTVFGPSSLNSLRQSPMQTIQENKPATFSSMSHYGNQTLQDLLTSDSLSHSDVMMTQSDPLMSQASTAVSAQNSRRNVMLRNDPMMSFAAQPNQGSLVNQNLLHHQHQTQGALGGSRALSNSVSNMGLSESSSLGSAKHQQQSPVSQSMQTLSDSLSGSSLYSTSANLPVMGHEKFPSDLDLDMFNGSLECDMESIIRSELMDADGLDFNFDSLISTQNVVGLNVGNFTGAKQASSQSWVPG

In experiment [1] the target is B2. Nature of the experiment: co-IP from 293T lysates with rabbit FOXO3 antibody, MST1 immunoblot. In general terms: Immunoblotting shows a protein as a band on a membrane.
The target in experiment [2] is T1, protein kinase MLK3 (endogenous, 293T cells) (UniProt Q16584 1-847).
T1 construct: Negative control in the co-immunoprecipitation of endogenous FOXO3
T1 sequence (Q16584 whole entry): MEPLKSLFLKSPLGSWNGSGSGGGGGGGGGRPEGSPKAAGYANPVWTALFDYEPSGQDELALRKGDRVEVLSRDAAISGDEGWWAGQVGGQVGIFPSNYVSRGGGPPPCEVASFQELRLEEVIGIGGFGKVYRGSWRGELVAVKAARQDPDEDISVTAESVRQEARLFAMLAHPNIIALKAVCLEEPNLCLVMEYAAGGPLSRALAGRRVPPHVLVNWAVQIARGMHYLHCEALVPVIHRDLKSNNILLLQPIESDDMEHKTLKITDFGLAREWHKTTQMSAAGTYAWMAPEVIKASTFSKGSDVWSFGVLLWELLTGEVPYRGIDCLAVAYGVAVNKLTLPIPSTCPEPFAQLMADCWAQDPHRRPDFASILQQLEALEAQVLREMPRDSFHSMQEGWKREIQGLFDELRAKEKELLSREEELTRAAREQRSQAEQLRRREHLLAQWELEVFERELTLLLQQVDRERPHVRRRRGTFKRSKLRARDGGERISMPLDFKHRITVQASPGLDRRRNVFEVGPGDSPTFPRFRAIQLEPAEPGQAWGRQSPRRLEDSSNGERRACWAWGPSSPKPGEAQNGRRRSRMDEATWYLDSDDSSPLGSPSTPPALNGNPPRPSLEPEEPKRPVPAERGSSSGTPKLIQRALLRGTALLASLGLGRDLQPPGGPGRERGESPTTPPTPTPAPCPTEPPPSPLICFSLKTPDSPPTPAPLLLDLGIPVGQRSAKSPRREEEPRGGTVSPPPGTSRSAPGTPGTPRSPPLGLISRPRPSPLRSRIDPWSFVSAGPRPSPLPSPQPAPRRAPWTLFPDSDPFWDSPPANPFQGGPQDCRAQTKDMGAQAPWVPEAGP
Nature of the experiment: co-IP from 293T lysates with rabbit FOXO3 antibody, MLK3 immunoblot.

B1: Endogenous MST1 (293T cells) (enzyme, UniProt Q13043 1-487, looked up)
chain: METVQLRNPPRRQLKKLDEDSLTKQPEEVFDVLEKLGEGSYGSVYKAIHKETGQIVAIKQVPVESDLQEIIKEISIMQQCDSPHVVKYYGSYFKNTDLWIVMEYCGAGSVSDIIRLRNKTLTEDEIATILQSTLKGLEYLHFMRKIHRDIKAGNILLNTEGHAKLADFGVAGQLTDTMAKRNTVIGTPFWMAPEVIQEIGYNCVADIWSLGITAIEMAEGKPPYADIHPMRAIFMIPTNPPPTFRKPELWSDNFTDFVKQCLVKSPEQRATATQLLQHPFVRSAKGVSILRDLINEAMDVKLKRQESQQREVDQDDEENSEEDEMDSGTMVRAVGDEMGTVRVASTMTDGANTMIEHDDTLPSQLGTMVINAEDEEEEGTMKRRDETMQPAKPSFLEYFEQKEKENQINSFGKSVPGPLKNSSDWKIPQDGDYEFLKSWTVEDLQKRLLALDPMMEQEIEEIRQKYQSKRQPILDAIEAKKRRQQNF
For the molecule B1, in experiment [1], the binding result was “binds”.
Regarding B2, in experiment [2], the binding result is “no binding”.
